Drawing on patent CN115433277A, this text covers OD450 for 2 molecules.

The target in the experiment is CD38 FC融合标签蛋白 (CD38 Fc fusion tag protein, expressed in 293F cells) (UniProt P28907). As to the kind of experiment: indirect ELISA, CD38 protein coated at 1 μg/ml, B cell culture supernatant, goat anti-rabbit IgG-HRP. For orientation: An ELISA detects its analyte on a solid surface through an enzyme-linked reagent.

B1: 命名为8H7的兔重组单克隆抗体 (anti-CD38 rabbit recombinant monoclonal antibody 8H7) (antibody, V domains shown)
VH: QSVKESEGGLFKPTDTLTLTCTVSGFSLSSYGVIWVRQAPGKGLEYIGFVAVGGTTYYANWAKSRSTITRNTNENTVTLKMTSLTAADTATYFCVRNGVSGSSDIWGPGTLVTVSS
VL: AYDMTQTPASVSEPVGGTVTIKCQASQSIYSYLSWYQQKLGQPPKLLIYSASTLASGVSSRFKGSGSGTEYTLTISGVECADAATYYCQQDYSGSNVDNTFGGGTEVVVK
As to B1, the OD450 was determined as 1.78 OD450.

B2: 命名为8A1的兔重组单克隆抗体 (anti-CD38 rabbit recombinant monoclonal antibody 8A1) (antibody, V domains shown)
VH: QSLEESGGDLVKPAGSLTLTCTASGFSFSTSYWICWVRQAPGKGLEWIACIYTGSGSTPYASWAKGRFTISKTSSTTVTLQVTSLTAADTATYFCARDPGVHSGTNLWGQGTLVSVSS
VL: DVVMTQTPASVSAAVGGTVTIKCQASEDINTLLAWYQQKPGQPPKLLIYLASNLASGVSSRFKGSRSGTEFTLTISDLECADAATYYCQCTYYGSTYGGTFGGGTEVVVK
As to B2, the OD450 came to 2.23 OD450.
